From US20170157165, “APTAMER FOR FGF2 AND USE THEREOF” (RIBOMIC INC., published 2017)

What was measured:
FGF2 [1] = biological target: T1, FGF2 (Homo sapiens, UniProt P09038 P09038:135-288); experiment: inhibition; SPR inhibition of FGF2-FGFR1alpha(IIIc); each 0.1 uM; conditions: tags: Peprotech
Procedure: BIAcore2000 manufactured by BIAcore was used for the measurement. As directed in BIAcore Company's protocol, Protein A (21181, manufactured by PIERCE) was immobilized on a CM5 sensor chip. About 1,000 RU of human FGFR1α (IIIc), R2α (IIIc), R3 (IIIc), R4 (manufactured by R&D Systems) fused with the Fc portion of IgG (manufactured by R&D systems) was each immobilized thereon. As analyte, a mixture of FGF2 (0.1 μM), heparin (0.1 μM) (manufactured by Pfizer) and aptamer (0.15 μM) was flown. Before an inhibitory test, a mixture of FGF2 and heparin was confirmed to bind to 4 kinds of receptors. […] A sensorgram showing that the aptamer shown by aptamer ID 1 inhibits binding of FGF2 and FGFR1α(IIIc), 2α(IIIc), 3(IIIc), 4 is shown in FIG. 2.
In addition, the inhibitory rate against each of the 4 kinds of receptors was determined. The inhibitory rate was determined with the maximum binding amount of the FGF2 and heparin mixture as 0, and the binding amount with an injection buffer alone as 100. The binding amount here means the RU value of the peak top of sensorgram. The inhibitory rate was calculated. […] The inhibitory rate of other aptamers was not more than 50%.
To enhance FGF2-binding activity, stability, drug deliverability and the like, the nucleic acids shown by aptamer IDs 3(1)-3(40), aptamer IDs 4 and 4(1)-4(4), aptamer ID 5 and aptamer ID 6 were chemically synthesized based on the aptamer shown in SEQ ID NO: 3. Here, the aptamer shown by aptamer ID 4 is the aptamer shown by aptamer ID 3(19) wherein one G(M) at the 5′-terminal and one C(M) at the 3′-terminal have been deleted. The aptamer shown by aptamer ID 5 is the aptamer shown by aptamer ID 3(19) wherein one G(M) has been added at the 5′-terminal and one C(M) has been added at the 3′-terminal. The aptamer shown by aptamer ID 6 is the aptamer shown by aptamer ID 3(19) wherein A(M) alone has been added at the 5′-terminal. These nucleic acids were produced by chemical synthesis.

FGF2 [2] = biological target: T1, FGF2; experiment: cell_activity; HUVEC proliferation, FGF2 0.58 nM; conditions: tags: Peprotech
Procedure: Human umbilical vein endothelial cells (HUVEC) were seeded in a 96 well flat bottom plate at 5×10³ cells per well, and cultured overnight using a medium EGM-2 Bullet Kit for endothelial cells (CC-3162 manufactured by Lonza) containing 2% fetal bovine serum and growth factors. Thereafter, the medium was discarded, the cells were washed twice with PBS buffer, and a mixture of the aptamer shown by aptamer ID 3(21) (5, 2.5, 1, 0.5 nM) and FGF2 (final concentration 0.5 nM), dissolved in a medium exclusively for endothelial cells containing 2% fetal bovine serum, was added. After 72 hr, viable cell number was examined using Cell Counting Kit-8. For the measurement of absorbance, a microplate reader (450 nm) was used. One sample was measured at n=3. As a positive control, anti-FGF2 antibody Anti-FGF, basic (Ab-3) Mouse mAb (3H3) (manufactured by Calbiochem) were used. With the OD value per well obtained by the addition of FGF2 alone and culture of the cells for 3 days as inhibitory activity 0%, and that of the cell obtained by FGF2 free culture for 3 days as inhibitory activity 100%, the inhibitory activity of the aptamer was calculated from the OD value per well obtained by culturing with the addition of a mixture of FGF2 and the aptamer. As a result, it was shown that the aptamer shown by aptamer ID 3(21) has a high inhibitory activity against FGF2.
By a method similar to the above except that the 96 well flat bottom plate was changed to a collagen-coated one, the activity of various aptamers was evaluated. The concentration of FGF2 added was 0.58 nM. As a negative control RNA, Macugen (registered trade mark) sequence without addition of PEG, and with C6 modification of the 5′-terminal and idT modification of the 3′-terminal was used.

T1 sequence (P09038 135-288, one chain of several): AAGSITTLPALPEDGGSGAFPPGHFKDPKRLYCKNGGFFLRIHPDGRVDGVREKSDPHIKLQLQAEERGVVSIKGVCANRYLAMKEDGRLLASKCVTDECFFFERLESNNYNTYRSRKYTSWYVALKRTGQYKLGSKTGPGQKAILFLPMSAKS

Binder | activity (FGF2 [1]) | IC50 (FGF2 [2])
GGGAUACUAGGGCAUUAAUGUUACCAGUGUAGUCCC (ssRNA, 2'-F at U8,U16,U21,U28,U30; 2'-OH at G12,G27,G29; all others 2'-OMe; 5' PEG 10K (ME-100TS)-C6; 3' idT) [aptamer ID 3(38)] | 97% | –
GGGAUACUAGGGCAUUAAUGUUACCAGUGUAGUCCC (ssRNA, all C and U 2'-F; 2'-OMe at G11; other purines 2'-OH) [aptamer ID 3(3)] | 87% | –
GGGAUACUAGGGCAUUAAUGUUACCAGUGUAGUCCC (ssRNA, 2'-F at U8,U16,U21,U28,U30; 2'-OH at G12,G27,G29; all others 2'-OMe; PS between G11 and G12) [aptamer ID 3(28)] | 91% | 4 nM
GGGAUACUAGGGCAUUAAUGUUACCAGUGUAGUCCC (ssRNA, all C and U 2'-F; 2'-OMe at A26; other purines 2'-OH) [aptamer ID 3(7)] | 89% | –
GGGAUACUAGGGCAUUAAUGUUACCAGUGUAGUCCC (ssRNA, 2'-F at U8,U16,U21,U28,U30; 2'-OH at G12,G27,G29; all others 2'-OMe; 5' idT) [aptamer ID 3(20)] | 96% | –
GGGAUACUAGGGCAUUAAUGUUACCAGUGUAGUCCC (ssRNA, 2'-OMe at G1,G2,G3,A4,A9,G10,G11,A14,A17,A18,G20,A23,A26,U33,C34,C35,C36; other C and U 2'-F; other purines 2'-OH; 3' idT) [aptamer ID 3(12)] | 89% | 21 nM
GGGAUACUAGGGCAUUAAUGUUACCAGUGUAGUCCC (ssRNA, 2'-F at U8,U16,U21,U28,U30; G12 DNA (2'-H); 2'-OH at G27,G29; all others 2'-OMe) [aptamer ID 3(23)] | 91% | 5.3 nM
GGGAUACUAGGGCAUUAAUGUUACCAGUGUAGUCCC (ssRNA, all C and U 2'-F; 2'-OMe at A6; other purines 2'-OH) [aptamer ID 3(9)] | 89% | –
GGGAUACUAGGGCAUUAAUGUUACCAGUGUAGUCCC (ssRNA, 2'-F at U8,U16,U21,U28,U30; 2'-OH at G12,G27,G29; all others 2'-OMe; 5' PEG 40K (GL2-400TS)-ssH; 3' idT) [aptamer ID 3(40)] | 97% | –
GGGAUACUAGGGCAUUAAUGUUACCAGUGUAGUCCC (ssRNA, 2'-F at U8,G12,U16,U21,G27,U28,G29,U30; all others 2'-OMe; 3' idT) [aptamer ID 3(34)] | 91% | –
GGGAUACUAGGGCAUUAAUGUUACCAGUGUAGUCCC (ssRNA, 2'-F at U8,U16,U21,U28,U30; 2'-OH at G12,G27,G29; all others 2'-OMe; 5' PEG 40K (Y-NHS-40K)-ssH; 3' idT) [aptamer ID 3(37)] | 97% | –
GGGAUACUAGGGCAUUAAUGUUACCAGUGUAGUCCC (ssRNA, 2'-F at U8,U16,U21,U28,U30; 2'-OH at G12,G27,G29; all others 2'-OMe; PS between G12 and C13) [aptamer ID 3(29)] | 91% | 3.1 nM
GGGAUACUAGGGCAUUAAUGUUACCAGUGUAGUCCC (ssRNA, all C and U 2'-F; 2'-OMe at G32; other purines 2'-OH) [aptamer ID 3(10)] | 89% | –
GGGAUACUAGGGCAUUAAUGUUACCAGUGUAGUCCC (ssRNA, all C and U 2'-F; 2'-OMe at A9; other purines 2'-OH) [aptamer ID 3(5)] | 87% | –
GGGAUACUAGGGCAUUAAUGUUACCAGUGUAGUCCC (ssRNA, all C and U 2'-F; 2'-OMe at A31; other purines 2'-OH) [aptamer ID 3(11)] | 88% | –
GGGAUACUAGGGCAUUAAUGUUACCAGUGUAGUCCC (ssRNA, 2'-OMe at G1,G2,G3,A4,C7,A9,G10,G11,A14,A17,A18,G20,A23,A26; other C and U 2'-F; other purines 2'-OH) [aptamer ID 3(16)] | 87% | 7.9 nM
GGAUACUAGGGCAUUAAUGUUACCAGUGUAGUCC (ssRNA, 2'-F at U7,U15,U20,U27,U29; 2'-OH at G11,G26,G28; all others 2'-OMe; 3' idT) [aptamer ID 4] | 95% | 5 nM
GGAUACUAGGGCAUUAAUGUUACCAGUGUAGUCC (ssRNA, 2'-F at U7,G11,U15,U20,G26,U27,U29; 2'-OH at G28; all others 2'-OMe; 3' idT) [aptamer ID 4(2)] | 94% | 5.1 nM
GGAUACUAGGGCAUUAAUGUUACCAGUGUAGUCC (ssRNA, 2'-F at U7,G11,U15,U20,U27,U29; 2'-OH at G26,G28; all others 2'-OMe; PS between U27 and G28; 3' idT) [aptamer ID 4(3)] | 96% | 4.6 nM
GGAUACUAGGGCAUUAAUGUUACCAGUGUAGUCC (ssRNA, 2'-F at U7,G11,U15,U20,G26,U27,U29; 2'-OH at G28; all others 2'-OMe; PS between G28 and U29; 3' idT) [aptamer ID 4(4)] | 96% | 4.5 nM
GGAUACUAGGGCAUUAAUGUUACCAGUGUAGUCC (ssRNA, 2'-F at U7,G11,U15,U20,U27,U29; 2'-OH at G26,G28; all others 2'-OMe; 3' idT) [aptamer ID 4(1)] | 93% | 3.8 nM
